This series deals with the molecule itself. Briefly: SEC.

The values below come from publication PMC2018643 (Nucleic Acids Research, 2007).

B1: His(6)-Rrp47p (natural protein, S. cerevisiae, UniProt P38801 1-184, looked up)
chain: MEDIEKIKPYVRSFSKALDELKPEIEKLTSKSLDEQLLLLSDERAKLELINRYAYVLSSLMFANMKVLGVKDMSPILGELKRVKSYMDKAKQYDNRITKSNEKSQAEQEKAKNIISNVLDGNKNQFEPSISRSNFQGKHTKFENDELAESTTTKIIDSTDHIRKASSKKSKRLDKVGKKKGGKK
For B1, the “stoichiometry N” value stood at 6.
